{"source": "patent US20260226194A1", "binders": {"B1": {"name": "TPP-12744 (antibody, human IgG1, kappa, V domains shown)", "VH": "QVQLVQSGAEVKKPGASVKVSCKASGYTFTSYAMHWVRQAPGQRLEWMGWMNAGTGATKSSQKFQGRVTITRDTSASTAYMELSSLRSEDTAVYYCARGPSMETPTTFGMDVWGQGTTVTVSS", "VL": "DIQMTQSPSSVSASVGDRVTITCRASQGISRWLAWYQQKPGKAPKLLIYAASSLQSGVPSRFSGSGSGTDFTLTISSLQPEDFATYYCQQENAYPFTFGGGTKVEIKR"}}, "target": "recombinant rabbit PAPPA (rabbit) (UniProt G1SFH7)", "assay": "SPR, Biacore 8K+, mAb captured on PrismA chip, PAPPA as analyte, 37 C, mean of n=3"}
{"binder": "B1", "values": [{"measurement": "Kd", "result": 0.17, "unit": "nM"}, {"measurement": "koff", "result": 0.000559, "unit": "s⁻¹"}, {"measurement": "kon", "result": "3.28e+06", "unit": "M⁻¹ s⁻¹"}]}
